Laboratory results as given in article PMC5389854, “Functional analysis of the GmESR1 gene associated with soybean regeneration”.

Biological target: GmESR1 (Glycine max cv. Dongnong 50, UniProt K7K6B8 5-391)
Experiment: EMSA; EMSA as in Kass et al. (2000); buffer, salt, pH and temperature not stated
Conditions: protein: recombinant; tags: His (pET-29b); label: digoxigenin-ddUTP; blunt

GmESR1, sequence (K7K6B8 entry or part of it): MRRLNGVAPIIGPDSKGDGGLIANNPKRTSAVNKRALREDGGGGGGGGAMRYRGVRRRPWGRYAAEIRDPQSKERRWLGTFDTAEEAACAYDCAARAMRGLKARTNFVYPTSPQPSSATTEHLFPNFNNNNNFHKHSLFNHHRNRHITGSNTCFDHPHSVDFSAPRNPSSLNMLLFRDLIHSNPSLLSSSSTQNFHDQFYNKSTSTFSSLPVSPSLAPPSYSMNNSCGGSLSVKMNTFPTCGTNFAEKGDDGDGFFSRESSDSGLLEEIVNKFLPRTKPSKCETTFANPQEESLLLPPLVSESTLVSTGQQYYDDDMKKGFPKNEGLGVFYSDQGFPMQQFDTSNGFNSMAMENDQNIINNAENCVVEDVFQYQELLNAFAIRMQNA

B1: mGCC-box probe (dsDNA)
DNA 1: ATCCATAAGATCCTCCACTAAAATAAGACCGATCAA
DNA 2: TTGATCGGTCTTATTTTAGTGGAGGATCTTATGGAT
  binding result: no binding
